Laboratory results: paper PMC8999913

Biological target: VAP-A (VAMP-associated protein A) (UniProt Q9P0L0)
Experiment: anti-GFP co-IP after DSP crosslinking, VAP-A blot
Conditions: reference: WT, sorbitol-treated; sites S315

For “CERT (ceramide transport protein) (from UniProt Q9Y5P4) S315A, sorbitol-treated”, the “binding against the reference” value was “weaker”.
